Columns and labels:
[1] = target: PfCCT MΔK^R681H, R681H point mutant of the second catalytic domain construct of Plasmodium falciparum CTP:phosphocholine cytidylyltransferase (528–795, Δ720–737) (Plasmodium falciparum); assay: native MS; native electrospray, QTOF, positive ion mode; 5 mM NH4HCO3 pH 7.2; gel filtered protein at 0.4 μM monomer concentration; source temperature 80°C; dimer to monomers; 3 samples from different expressions
[2] = target: PfCCT MΔK^WT, second catalytic domain construct of Plasmodium falciparum CTP:phosphocholine cytidylyltransferase (528–795, Δ720–737) (Plasmodium falciparum); assay: as above

Substance	fold decrease of the dimer:monomer abundance ratio against PfCCT MΔK^WT [1]	stoichiometry N [2]
PfCCT MΔK^R681H, R681H point mutant of the second catalytic domain construct of Plasmodium falciparum CTP:phosphocholine cytidylyltransferase (528–795, Δ720–737) (domain or fragment)	20 times lower	–
PfCCT MΔK^WT, second catalytic domain construct of Plasmodium falciparum CTP:phosphocholine cytidylyltransferase (528–795, Δ720–737) (domain or fragment)	–	2
